These results are taken from EP3150637A1 (F. Hoffmann-La Roche AG, dated 2017).

The assay addresses T1, human VEGFA-121 (VEFG-A-121-His) (human, UniProt P15692-9 27-147).
T1 construct: Captured on an anti-His antibody surface; not shown: His tag
T1 sequence (looked up): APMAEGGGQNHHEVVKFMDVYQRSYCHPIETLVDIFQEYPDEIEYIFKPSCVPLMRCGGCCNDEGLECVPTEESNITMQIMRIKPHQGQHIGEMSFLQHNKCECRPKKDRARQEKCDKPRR
Description: SPR (Biacore T200), VEGF-A-121-His captured on anti-His, antibody in solution, Langmuir 1:1. On the technique in general: In SPR one partner is held on a chip, and binding of the other changes the refractive index at the surface.

B1: Ang2VEGF-0477 (bispecific antibody, human IgG1, kappa)
light 1: QPGLTQPPSVSVAPGQTARITCGGNNIGSKSVHWYQQKPGQAPVLVVYDDSDRPSGIPERFSGSNSGNTATLTISRVEAGDEADYYCQVWDSSSDHYVFGTGTKVTVLRTVAAPSVFIFPPSDEKLKSGTASVVCLLNNFYPREAKVQWKVDNALQSGNSQESVTEQDSKDSTYSLSSTLTLSKADYEKHKVYACEVTHQGLSSPVTKSFNRGEC
heavy 1: not shown
light 2: DIQMTQSPSSLSASVGDRVTITCSASQDISNYLNWYQQKPGKAPKVLIYFTSSLHSGVPSRFSGSGSGTDFTLTISSLQPEDFATYYCQQYSTVPWTFGQGTKVEIKSSASTKGPSVFPLAPSSKSTSGGTAALGCLVKDYFPEPVTVSWNSGALTSGVHTFPAVLQSSGLYSLSSVVTVPSSSLGTQTYICNVNHKPSNTKVDKKVEPKSC
heavy 2: not shown
notes: Bivalent bispecific CrossMAb CH1-CL
For orientation: koff means a measure of how fast the partners let go of each other. A lower koff goes with slow dissociation. B1 showed a koff of 6.11e-05 s⁻¹.
